Measurements from US20120219498A1 (RAMOT AT TEL AVIV UNIVERSITY, published 2012).

What was measured:
[1] = biological target: T1, glucose-regulated protein (GRP78) (Homo sapiens, UniProt P11021 19-654); experiment: endothelial cells, normoxia, peptide at 0.01, 0.1 or 1 ng/ml for 2 hours, then competitor biotinylated ADOPep1 at 2 ug/ml, HRP-streptavidin
T1 construct: Endogenous GRP78: on the membrane of human umbilical vein endothelial cells (HUVEC) or tumor cell lines in FACS and cell ELISA; from HUVEC lysate in the immunoprecipitation and Western blot experiments; also called GRP78 receptor; ADOPeps receptor
T1 sequence (P11021 19-654 limits assumed): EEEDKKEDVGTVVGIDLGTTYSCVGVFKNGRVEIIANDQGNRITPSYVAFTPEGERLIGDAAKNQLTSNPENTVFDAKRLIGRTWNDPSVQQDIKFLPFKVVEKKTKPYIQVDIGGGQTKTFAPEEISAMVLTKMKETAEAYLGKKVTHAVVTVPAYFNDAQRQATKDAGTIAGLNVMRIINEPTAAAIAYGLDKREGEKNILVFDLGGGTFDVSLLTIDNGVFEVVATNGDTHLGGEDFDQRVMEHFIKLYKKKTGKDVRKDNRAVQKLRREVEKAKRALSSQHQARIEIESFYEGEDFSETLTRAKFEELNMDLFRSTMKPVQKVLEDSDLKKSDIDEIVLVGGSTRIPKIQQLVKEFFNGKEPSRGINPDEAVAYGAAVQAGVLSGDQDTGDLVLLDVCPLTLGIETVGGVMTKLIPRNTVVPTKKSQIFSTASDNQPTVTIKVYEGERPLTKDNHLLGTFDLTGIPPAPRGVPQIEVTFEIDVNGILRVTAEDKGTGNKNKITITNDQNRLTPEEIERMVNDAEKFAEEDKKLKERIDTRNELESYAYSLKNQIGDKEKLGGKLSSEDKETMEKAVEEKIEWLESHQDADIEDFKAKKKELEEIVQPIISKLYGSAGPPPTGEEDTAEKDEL
Method: Endothelial cells were incubated for 2 hours under normoxia conditions in the presence of increasing concentrations (0.01, 0.1 or 1 ng/ml) of peptides having the amino acid sequences corresponding to Motif A (HWRRP; SEQ ID NO:7), Motif B (HWRRA; SEQ ID NO:8), Motif C (AHLLP; SEQ ID NO:6) or non-biotinylated ADOPep1 (SEQ ID NO:2) and then were incubated for 1 hour with biotinylated ADOPep1 (2 μg/ml) and the binding of biotinylated ADOPep1 to endothelial cells was determined using HRP-streptavidin.

[2] = biological target: T1, glucose-regulated protein (GRP78); experiment: cell ELISA on endothelial cells, peptide 2 hours, then competitor anti-GRP78 antibody at 2 ug/ml
Method: Endothelial cells were incubated for 2 hours with increasing concentrations of ADOPeps, following which the cells were incubated for another 1 hour with the 2 μg/ml of anti-GRP78 antibody and the amount of bound antibody on EC was detected using an ELISA reader.
Endothelial cells (20,000 per well) were seeded in 96 well plates for 24 hours in the presence of the complete medium. Plates were washed with PBS over night and rehydrated with PBS, 0.1% Na Azide and 5% FCS. ADOPep1, ADOPep2 and ADOPep3 were added to washed plates for 2 hours at room temperature at concentrations of 0.01, 0.1 and 1 microgram per ml. Anti-GRP78 antibody (goat polyclona IgG, Santa Cruz Biotechnology, Calif., USA) was added to the plates for 1 hour at room temperature at a concentration of 2 micrograms/ml per well. After washing, bound anti-GRP78 antibody was detected by incubation with anti-goat IgG Peroxidase conjugated (Jackson Immuneresearch Laboratories, PA, USA). After 5 washes with PBS-0.1% Tween 20, 100 μl/well of TMB+ Substrate-Chromogen (DAKOCytomation, CA, USA) was added for a maximum of 30 minutes. Reaction was stopped with 1N HCl. Color developed was determined by an ELISA reader at 450 nm.

Binder: HWRRA (also called peptide motif B) [Motif B peptide (HWRRA)]
- binding result [1]: binds

Binder: ENFLHWRRAHLL [ADOPep2]
- percent inhibition of binding of anti-GRP78 antibody [2]: ≤ 50%

B1: ADOPep1 (peptide)
peptide: HWRRAHLLPRLP
notes: Unlabelled synthetic peptide (SynPep); also called non-biotinylated ADOPep1
- percent inhibition of binding of anti-GRP78 antibody [2]: ≤ 50%

Binder: AVTLENFLHWRR [ADOPep3]
- percent inhibition of binding of anti-GRP78 antibody [2]: ≤ 50%
